Assay results: patent publication US20230235304
Where a chain is given by its changes, count along the chain named.

Legend:
[1] = test system: T1, CRISPR nuclease variant S78K,E198R,R354G S78K,E198R,R354G (synthetic construct); assay: cell_activity; settings: PAM 5'-GCTG-3'; HEK293T; averaged over AAVS1, VEGFA, EMX1 targets
T1 sequence: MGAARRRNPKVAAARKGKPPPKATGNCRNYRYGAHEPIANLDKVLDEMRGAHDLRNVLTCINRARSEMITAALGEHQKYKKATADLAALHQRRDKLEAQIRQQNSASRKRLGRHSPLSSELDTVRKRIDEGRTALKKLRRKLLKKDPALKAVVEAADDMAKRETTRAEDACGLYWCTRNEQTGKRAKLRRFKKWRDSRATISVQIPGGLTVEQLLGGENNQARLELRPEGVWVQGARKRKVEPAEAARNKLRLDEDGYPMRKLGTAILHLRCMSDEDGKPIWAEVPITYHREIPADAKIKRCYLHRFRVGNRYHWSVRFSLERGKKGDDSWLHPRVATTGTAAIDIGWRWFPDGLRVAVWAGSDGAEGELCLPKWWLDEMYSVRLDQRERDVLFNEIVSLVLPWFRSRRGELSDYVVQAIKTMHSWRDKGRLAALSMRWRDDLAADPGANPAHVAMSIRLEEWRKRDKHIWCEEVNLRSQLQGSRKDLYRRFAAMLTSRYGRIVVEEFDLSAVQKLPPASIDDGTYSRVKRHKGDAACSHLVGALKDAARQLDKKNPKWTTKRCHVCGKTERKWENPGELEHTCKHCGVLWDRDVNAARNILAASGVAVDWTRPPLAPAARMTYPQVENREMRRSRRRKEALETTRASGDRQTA

[2] = test system: T2, CRISPR nuclease variant Q514G Q514G (synthetic construct); assay: cell_activity; settings: PAM 5'-GCTG-3'; HEK293T; averaged over AAVS1, VEGFA, EMX1 targets
T2 sequence: T1 sequence with K78S, R198E, G354R, Q514G

GGUCCCAUCGGAACGGGUUGUGGUUCCGACGGAGGGAUACAUUGGUGGGG / GGAGGGATACATTGGTGGGG / CCCCACCAATGTATCCCTCC [AAVS1 crRNA (Table 5) ; AAVS1 target (Table 5)]
binding signal (fold indels vs WT) [1]: 4.14
binding signal (fold indels vs WT) [2]: 3.53
